The record followed here is patent CN114716554A (dated 2022).

The target of assay [1] is T1, Human LILRB4/CD85k/ILT3 Protein (ECD, His Tag), Sino Biological (human, UniProt Q8NHJ6 22-259).
T1 construct: extracellular domain; Bought recombinant protein with a His tag; also called 人LILRB4蛋白; LILRB4蛋白
Description: ELISA, coated LILRB4 ECD-His, antibody titrated.

Assay [2] concerns the target T2, LILRB1 Protein, Human, Recombinant (ECD, His Tag), Sino Biological (human, UniProt Q8NHL6 24-461).
T2 construct: extracellular domain; Bought recombinant protein with a His tag; also called LILRB1蛋白
Description: ELISA, coated protein.

For assay [3], the target named is T3, ILT4 Protein, Human, Recombinant (ECD, His Tag), Sino Biological (human, UniProt Q8N423 22-460).
T3 construct: extracellular domain; Bought recombinant protein with a His tag; also called LILRB2蛋白
Description: ELISA, coated protein.

For assay [4], the target named is T4, LILRB3 Protein, Human, Recombinant (ECD, His Tag), Sino Biological (human, UniProt O75022 24-443).
T4 construct: extracellular domain; Bought recombinant protein with a His tag; also called LILRB3蛋白
The experiment in a line: ELISA, coated protein.

For assay [5], the target named is T5, LILRB5/CD85c Protein, Human, Recombinant (ECD, His Tag), Sino Biological (human, UniProt O75023 24-458).
T5 construct: extracellular domain; Bought recombinant protein with a His tag; also called LILRB5蛋白
The experiment in a line: ELISA, coated protein.

In assay [6] the target is T6, LILRB4 on LILRB4阳性细胞THP-1 (human, UniProt Q8NHJ6 22-448).
T6 construct: whole, on cells; also called LILRB4阳性肿瘤细胞THP-1; 人单核白血病细胞THP-1
Description: flow cytometry on THP-1 cells.

T5 sequence (O75023 24-458): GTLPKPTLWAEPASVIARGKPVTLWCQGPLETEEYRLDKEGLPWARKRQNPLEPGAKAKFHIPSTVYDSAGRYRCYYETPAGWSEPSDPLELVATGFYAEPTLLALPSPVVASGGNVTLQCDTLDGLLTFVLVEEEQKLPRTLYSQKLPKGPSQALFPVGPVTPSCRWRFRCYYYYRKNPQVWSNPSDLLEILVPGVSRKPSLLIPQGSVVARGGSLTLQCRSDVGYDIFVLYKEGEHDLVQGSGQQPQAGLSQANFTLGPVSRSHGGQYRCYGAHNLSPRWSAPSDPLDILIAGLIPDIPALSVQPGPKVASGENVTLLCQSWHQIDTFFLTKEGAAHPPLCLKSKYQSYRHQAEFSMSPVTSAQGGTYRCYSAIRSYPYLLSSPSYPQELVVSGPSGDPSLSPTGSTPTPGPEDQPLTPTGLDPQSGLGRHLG
T3 sequence (Q8N423 22-460): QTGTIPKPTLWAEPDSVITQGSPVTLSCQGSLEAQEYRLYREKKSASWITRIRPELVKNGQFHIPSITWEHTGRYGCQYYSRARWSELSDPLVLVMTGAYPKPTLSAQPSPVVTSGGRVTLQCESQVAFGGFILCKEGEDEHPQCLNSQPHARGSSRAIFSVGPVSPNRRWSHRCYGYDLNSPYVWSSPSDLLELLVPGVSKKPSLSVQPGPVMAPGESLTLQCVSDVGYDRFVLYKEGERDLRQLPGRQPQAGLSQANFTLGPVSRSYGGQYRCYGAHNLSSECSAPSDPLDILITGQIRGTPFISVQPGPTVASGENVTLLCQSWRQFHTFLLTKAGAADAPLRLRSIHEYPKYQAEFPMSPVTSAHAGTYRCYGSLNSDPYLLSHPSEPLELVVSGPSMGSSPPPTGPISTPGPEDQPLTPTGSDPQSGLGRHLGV
T2 sequence (Q8NHL6 24-461): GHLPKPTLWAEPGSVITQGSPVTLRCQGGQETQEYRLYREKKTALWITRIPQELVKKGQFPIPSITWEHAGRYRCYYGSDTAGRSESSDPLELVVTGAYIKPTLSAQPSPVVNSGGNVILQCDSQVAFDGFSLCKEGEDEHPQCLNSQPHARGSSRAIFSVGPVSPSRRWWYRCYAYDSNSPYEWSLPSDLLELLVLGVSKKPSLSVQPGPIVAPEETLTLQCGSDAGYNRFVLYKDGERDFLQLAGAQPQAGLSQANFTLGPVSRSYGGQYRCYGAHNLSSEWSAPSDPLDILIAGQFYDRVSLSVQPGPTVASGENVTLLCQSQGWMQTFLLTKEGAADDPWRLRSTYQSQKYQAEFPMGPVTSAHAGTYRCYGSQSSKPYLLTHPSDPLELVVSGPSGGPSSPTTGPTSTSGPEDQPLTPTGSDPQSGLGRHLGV
T4 sequence (O75022 24-443): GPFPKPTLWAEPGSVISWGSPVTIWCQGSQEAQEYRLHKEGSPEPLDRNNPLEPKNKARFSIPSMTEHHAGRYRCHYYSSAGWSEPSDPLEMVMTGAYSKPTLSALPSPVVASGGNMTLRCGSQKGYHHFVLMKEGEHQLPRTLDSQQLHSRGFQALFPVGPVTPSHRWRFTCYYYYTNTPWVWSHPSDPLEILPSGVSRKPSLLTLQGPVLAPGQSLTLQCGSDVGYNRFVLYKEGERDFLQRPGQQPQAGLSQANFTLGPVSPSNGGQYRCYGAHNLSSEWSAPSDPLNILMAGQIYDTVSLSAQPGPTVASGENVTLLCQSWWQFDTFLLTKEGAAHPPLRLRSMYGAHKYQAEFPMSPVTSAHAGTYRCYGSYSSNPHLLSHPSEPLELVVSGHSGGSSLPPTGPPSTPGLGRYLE

B1: 全人源抗体2B9 (antibody, V domains shown)
VH: EVQLVQSGGGLIQPGGSLRLSCAASGFTVSSNYMSWVRQAPGKGLEWVSVIYSGGSTYYADSVKGRFTISRDNSKNTLYLQMNSLRAEDTAVYYCAKGATGGHDAFDIWGQGTTVTVSS
VL: not shown
notes: Fully human antibody from a phage library, made as a whole antibody in CHO-S cells; IgG4 heavy chain constant region, Ig kappa light chain
Regarding B1, the binding result is on record as “binds” in assay [1]; “no binding (tested: 10 μg/mL)” in assay [2]; “no binding (tested: 10 μg/mL)” in assay [3]; “no binding (tested: 10 μg/mL)” in assay [4]; “no binding (tested: 10 μg/mL)” in assay [5]; “binds” in assay [6].
